Laboratory results taken from the nanobody polyreactivity screen of Harvey et al. (2022).

Experiment: yeast display, Sf9 membrane polyspecificity reagent, FACS + sequencing; frameworks hold sequencing errors
In short: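 A synthetic nanobody library was expressed on Saccharomyces cerevisiae BJ5465 by galactose induction for 36–48 hours. The library was stained for 1 hour at 4 °C with 10% biotinylated, detergent-solubilized Sf9 membrane reagent and enriched with streptavidin microbeads before FACS. Low and high (top ~1%) gates were set on anti-HA fluorescence for expression and streptavidin fluorescence for reagent binding, and each polyreactivity label reflects the gate of origin.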

Sequence	polyreactivity (PSR sort gate)
QVQLVESGGGLVQAGGSLRLSCAASGSNFRYNTMGSYRQAPGKERELVAAITQSGDNTYYADSVKGRFTISRDNAKNTVYLQMNSLKPEDTAVYYCAASGARSDGWTSYDYWGQGTQVTVSS	low polyreactivity
QVQLVESGGGLVQAGGSLRLSCAASGSNFRYYAMGWYRQAPGKERELFAAISSNGGSTSYADSVKGRFTISRDNAKNTVYLQMNSLKPEDTAVYYCAATRRWYPTKLYGYWGQGTQVTVSS	high polyreactivity
QVQLVESGGGLVQAGGSLRLSCAASGSNFSHYAMGWYRQAPGKESELVAAISSGDSTNYADSVKGRFTISRDNAKNTVYLQMSSVKPEDTAVYYCAKTRRRLLTRYDYWGQGTQVSVSS	low polyreactivity
QVQLVESGGGLVQAGGSLRLSCAASGSNFSYTMGWYRQAPGKERELVAAITSGGITYYADSVKRRFTISRDNAKNTVYLQMNCLKPEDTAVYYCNAYYPYGLASFYYWGQGTQVTVSS	low polyreactivity
QVQLVESGGGLVQAGGSLRLSCAASGSNFVVNAMGWYRQAPGKERELVAAITQSGGSTFYADSVKGRFTISRDNAKNTVYLLMNSLKPEDSAVYYWGQGTQVTVSS	low polyreactivity
QVQLVESGGGLVQAGGSLRLSCAASGSNFVYNAMGRNRQAPGKERELVAAISSGGRTNYADSVKGRFTISRDNANNTVYLQMNSLKPEDTAVYYCADEGLLWWSGYYYWGQGTQVTVYS	high polyreactivity
QVQLVESGGGLVQAGGSLRLSCAASGSNFWAYTMGWYRQAPGKERELVAVITDSTGSTYYADSVKGRFTISRDNAMNTVFLQMNSLKPEDTAVYYCAARLWIGYLKYDYWGQGTQVTVSS	high polyreactivity
QVQLVESGGGLVQAGGSLRLSCAASGSNFWLYAMGWYRQAPGKERELVAAIRSGDRTNYADSVKGRFTISRDNAKNTVYLQMNSLKPEDTAVYYCAAVAYLNWTPHYYWGQGTQVTVSS	low polyreactivity
QVQLVESGGGLVQAGGSLRLSCAASGSNFYIYAMGRYRQAPGKERELVAAISYSGGRTTYADSVKGRFTISRDYAKNTVYLQMNSLKPEDTAVYYCAAGFSYYGLAVAPYRSWGRYYNWGQGTQVTVSS	high polyreactivity
QVQLVESGGGLVQAGGSLRLSCAASGSNFYNNVMGWYRQAPGKERELVAAINSGGRTYYADSVKGRFTISRDNAKNTVYLQMNSLKPEDTAVYYCAVGYGRAARMDYWGQGTQVTVSS	high polyreactivity
QVQLVESGGGLVQAGGSLRLSCAASGSNFYPYAMGWYRQAPGKERELVAGITGGGRTYYADSVKGRFTISRDNAKNTVYLQMNSLKPEDTAVYYCAAVDYVSYYIPFHYEYYWGQGTQVTVSS	low polyreactivity
QVQLVESGGGLVQAGGSLRLSCAASGSNFYVYAMGWYRQAPGKERELVAAIRWSGGSTYYADSVKGRFTISRDNANYPVYLQMNSLKPEDTADYYCAADAHPDSVWYGEYDYWGQGTQLTVSS	low polyreactivity
QVQLVESGGGLVQAGGSLRLSCAASGSNLYPYAMGWYRQAPGKERELVAAISRGGSTNYADSVKGRYTIARDNAKNTVYLQMNSLKPDDTAVYYCATAYTRFSQRYEYYVIYWQNDYWGQGTQVTVSS	low polyreactivity
QVQLVESGGGLVQAGGSLRLSCAASGSNSVYNAMGWYRQAPGKERELVAAISWSGGRTSYADSVKGRFTISRDNAKNTVYLQMNSLKPEDTAVYYCAADELTVLWDEDYWGQGTQVTVSS	low polyreactivity
QVQLVESGGGLVQAGGSLRLSCAASGSNYTYYAMGWYRQAPGKERQLVAAIRSSGSTYYADSVKGRFTISRDNAKNTVYLQMNSLKPEDTAVYYCAAKARRLNASSYDYWGQGTQVTVSS	high polyreactivity
QVQLVESGGGLVQAGGSLRLSCAASGSPFFVYAMGWYRQAPGTERELVAAISSRGSTYYADSVKGRFTIARDTAKNTVYLQMNSLKPEDTAVYYCAAEYTVSYLRMDYWGQGTQVTVSS	low polyreactivity
QVQLVESGGGLVQAGGSLRLSCAASGSPFRGNAMGWYRQAPGKEREFVAAITVSCGSTYYADSVKGRFTISRDNAKNNVYLQMKSLNPEDTAVYYCAARYLRYSSKTIQNEDYWGQGTQVTVSS	high polyreactivity
QVQLVESGGGLVQAGGSLRLSCAASGSPFYGYGMGWYRQAPVKERELVAASTRSGGSTYYADSVKGRFTRSRDNAKNTVYVQKNSLKPEDTEVYYCNKSGYKGGVGYDYWGQGTQVTVSS	high polyreactivity
QVQLVESGGGLVQAGGSLRLSCAASGSRYSRNAMGWYRQAPGKERELVAASSYSSGSTYYADSVKGRFTISLDNAKNTVYLQMNSLIPEDTAVYYCAADTTKLQGVEGDYWGQGTQVTVSS	low polyreactivity
QVQLVESGGGLVQAGGSLRLSCAASGSSFYDNAMGWYRQAPGKERELVAGIRSTGRTYYADSVKGRFTISRDNAKNTVYLQMNSLKPEDTAVYYCAAYVGTYGEYDYWGQGTQVTVSS	low polyreactivity
QVQLVESGGGLVQAGGSLRLSCAASGSSFYDYAMVWYRQAPGKERELVAAINGNGDSTYYADSVKGRFTISRDNAKYTVYLQMNSLKPEDNAVYYCAAYLGWGYDYWGQGTQVTVSS	low polyreactivity
QVQLVESGGGLVQAGGSLRLSCAASGSSFYSNAMGWYRQAPGKERELVAAISSSGGSTYYADSVKGRFTISRDNAKNTVYLQMNSLKPEDTAVYYCAAYSYYPPYDYWGQGTQVTVSS	high polyreactivity

Sequence	polyreactivity (PSR sort gate)
QVQLVESGGGLVQAGGSLRLSCAASGSSGYFYALGWSRPAPGKERELVADMDWSGDSTYYADSVKGRFTISRDNAKTTVYLQMNSLKPEDTAVYYCNAAYDYYSPSYTYDYWGQGTQVTVSS	low polyreactivity
QVQLVESGGGLVQAGGSLRLSCAASGSSTLMLMGWYRQAPGKERELVAVITSSGGRTYYADSVKGRFTISRDNAKNTVYLQMNSLKPEDTAVYYCNVDIGVYAYESDYWGQGTQVTVSS	low polyreactivity
QVQLVESGGGLVQAGGSLRLSCAASGSTCRGYAMGWYRQAPGKEREFVAAISRRGGTTYYADSVKGRFTISRDNAKNTVYLQMNSLKQEDTAVYYCNKVYYQHYLAFDYWGQGTQVTVSS	high polyreactivity
QVQLVESGGGLVQAGGSLRLSCAASGSTFAANAMGWSRPAPGKERELVAAITSSGGSTYYADSVKGRFTISRDYAKNTVYLQMNSLKPEDTAVYYCNKDIERYVRIYDSWGQGTQVTVSS	low polyreactivity
QVQLVESGGGLVQAGGSLRLSCAASGSTFACNAMGWDRQAPGKERELVAAISWSGGSTYYADSVKGRFTISRDNAKNTVYLQMNSLKPEDTAVYYCAARRYASRTGYLYDFWGQGTQVTVSS	high polyreactivity
QVQLVESGGGLVQAGGSLRLSCAASGSTFADNAMGWYSQARGKAGEFVAGISTNGGSTYYADSVKGRFTISRDNAKNTVYLQMNSLKPEDTAVYYCSAVNYYDQYGDYYWGQGTQVTVSS	low polyreactivity
QVQLVESGGGLVQAGGSLRLSCAASGSTFADYAMGWYRQAPGKERELVAAITQSGGSTSYADSVKGRFTISRDNAKNTVYLQMNSLKPEDTAVYYCNVDDSTWIGAYRRYDYWGQGTQVTVSS	low polyreactivity
QVQLVESGGGLVQAGGSLRLSCAASGSTFADYAMGWYRQAPGKERELVAAITSSGGSTYYADSVKGRFTISRDNAKYTVYLQMKSLKAAETAGYYCNARVPRLLFVRFYGMDYWGQGNQVTVSS	low polyreactivity
QVQLVESGGGLVQAGGSLRLSCAASGSTFAFYDMGWYRQAPGKERELVAIIDWSGGRTYYADSVKGRFTISRDNAKNTVYLQMNSLKPEDTAVYYCNAENTYLGSRYRPYNYWGQGTQVTVSS	low polyreactivity
QVQLVESGGGLVQAGGSLRLSCAASGSTFAGNAIGWYRQAPGKERELVAAIDSSTGSTYYADSVKGRFTISRDNAKNTVFLQMNSLKPEDTAVYYCNKTSFLVNLDYWGQGTQVTVSS	low polyreactivity
QVQLVESGGGLVQAGGSLRLSCAASGSTFAGNAMGWYRQAPGKERELVAAIDSSTGSTYYADSVKGRFTISRDNAKNTVYLQMNSLKPEDTAVYYCNNTSFLVKLDYWGQGTQVTVSS	low polyreactivity
QVQLVESGGGLVQAGGSLRLSCAASGSTFAGNAMGWYRQAPGKERELVAAIDSSTGSTYYADSVKGRFTISRDNAKNTVYLQMNSLKPEDTAVYYSNAEIYPIVKAGRQHPRRYDYWGQGTQVTVSS	low polyreactivity
QVQLVESGGGLVQAGGSLRLSCAASGSTFAGNAMGWYRQAPGKERELVAAISSSGAGTYYADSVKGRFTISRDNAKNTVYLQMNSLKPEDTAVYYCNVGSRALRRRVRSVSFDYWGQGTQVTVSS	low polyreactivity
QVQLVESGGGLVQAGGSLRLSCAASGSTFAGNTMGWYRQAPGKERELVAAITWNGGRTRYADSVKGRFTISRDNAKNTVYLQMNSLKPEDTAVYYCNAGPWYENMDYWGQGTQVTVSS	high polyreactivity
QVQLVESGGGLVQAGGSLRLSCAASGSTFAGYALGWYRQAPGKERELVADITWSGGSTYYADSVKGRFTISRDNAKNTVYLQMNSLKPEDTAVYYCAAAGYYSDMDYWGQGTQVTVSS	low polyreactivity
QVQLVESGGGLVQAGGSLRLSCAASGSTFAGYVMGFYIQATGKERELVAAISGSGGSTYYADSVKGRFTISRDNAKKTVYLQMNSLKPEDTAVYYCAKRAIIKYRGGYGYWGQGTQVTVSS	high polyreactivity
QVQLVESGGGLVQAGGSLRLSCAASGSTFAINAMGWYRQAPGKERELVAAISSSGSTNYADSVKGRFTISRDNAKNTVYLQMNSLKPEDTAVYYCAADQYWDGYDFLYDYWGQGTQVTVSS	low polyreactivity
QVQLVESGGGLVQAGGSLRLSCAASGSTFAINAMGWYRQAPGKERELVAAMSSSGSTNYADSGNGRFTISRDNAKNTVYLQMNSLKPEDTAVYYCAADRVWGTPQAYVPSQFDYWGQGTQVTVSS	low polyreactivity
QVQLVESGGGLVQAGGSLRLSCAASGSTFAIYAMGWYRQAPGKERELVAAINSGGSTNYADSVKGRFTISRDNAKNTVYLQMNSLKPEDTAVYYCNTDAWHETPVSGYSWGQGTQVTVSS	low polyreactivity
QVQLVESGGGLVQAGGSLRLSCAASGSTFAIYAMGWYRQAPGKERELVAAITRGSTSYADSVKGRFTISRDNAKNTVYLQMYSLKPEDTAVYYCAADSSRYGVIRDFDYWGQGTQVTVSS	high polyreactivity
QVQLVESGGGLVQAGGSLRLSCAASGSTFAKYVMGWYRQAPGKERELVAAISTRGTRTYYADSVKGRFTISRDTAKNTVYLQMNSLKPEDTAVYYCAVVTIISSRLGNYWGQGTQVTVSS	high polyreactivity
